The record followed here is the supplement of paper PMC10724198.

± gives the standard deviation of the averaged measurements.
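Also: PSI is a weighted mean of sequencing reads over stability bins, variants kept only with over 10 reads, mCherry proximal and sfGFP distal, peptide attached via GGGS linker.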

This data set has as its system Saccharomyces cerevisiae. As to the kind of experiment: protein stability index of tFT-peptide fusion (C-terminal peptide) (PSI (0-1 scale)); higher = more stable (slower turnover). The note with it: genetic background: wild type; temperature: 30 C.
For PSPPASTPLPPP, the protein stability index is 0.684 ± 0.024.

PSPPCPPTDPPA had a protein stability index of 0.624 ± 0.011. To PSPPFLPPPVPL belongs 0.685 ± 0.056; to PSPPHLHLHLAP, 0.665 ± 0.013. The sequence PSPPHPPPPLFP showed a protein stability index of 0.706 ± 0.02. In the case of PSPPLCPPRFSP it was 0.652 ± 0.025; in that of PSPPLPPLPPSP, 0.575 ± 0.053; in that of PSPPPAPLHSPL, 0.704 ± 0.058. In the case of PSPPPAPPPQPS it was 0.678 ± 0.052.

As to PSPPPLPSPPSL, the protein stability index stood at 0.738 ± 0.087. In the case of PSPPPTPPPFLP it was 0.71 ± 0.054; in that of PSPPRKHAPFRP, 0.737 ± 0.0085.

PSPRPSPPLPSP registered a protein stability index of 0.647 ± 0.076. PSPSPLPASFRL: the protein stability index was 0.683 ± 0.11. In the case of PSPSPPPCPYPP it was 0.677 ± 0.054.

Consider PSPSSPLPPPPP, for which the protein stability index is 0.794 ± 0.035. To PSPTPSPPFPAP belongs 0.721 ± 0.038. PSPTRLPPPSPH displayed a protein stability index of 0.757 ± 0.008. For the sequence PSPYFPVPLLPS, the protein stability index came out at 0.701 ± 0.028. With PSQKRITDPRET, the protein stability index is 0.683 ± 0.047.

With PSRDGNLYAQCR, the protein stability index came out at 0.618 ± 0.048. For PSRPTLLTPLSP, the protein stability index came to 0.695 ± 0.045. To PSRRFLPEKRSL belongs 0.678 ± 0.0039; to PSRRPPLPLPRP, 0.714 ± 0.013; to PSRRPPPPPFLP, 0.7 ± 0.036.

The sequence PSRTSPLSHIPF showed a protein stability index of 0.676 ± 0.023. To PSSFPDPFSPSL belongs 0.735 ± 0.037; to PSSHPLLPPPPP, 0.67 ± 0.06; to PSSPHTAIRHPL, 0.671 ± 0.02. In the case of PSSPIFPFSSLP it was 0.599 ± 0.15. In the case of PSSPTYVPPSFL it was 0.6754 ± 0.0022; in that of PSSSSWPPPRHP, 0.831 ± 0.18. Turning to PSSSYLSCLPSW, the protein stability index came to 0.703 ± 0.083. In the case of PSSTSPQPRLCF it was 0.686 ± 0.027; in that of PSTPPPRLHPSS, 0.642 ± 0.032. To PSVPSAAPPSSA belongs 0.703 ± 0.02; to PSVRQSSPRFLH, 0.667 ± 0.067. In the case of PSYSPPPHPVHR it was 0.686 ± 0.05; in that of PTFRLGGYYRKS, 0.703 ± 0.055. The sequence PTGLTNPPPCPQ yielded a protein stability index of 0.716 ± 0.11. In the case of PTHGPSPPNVAT it was 0.6595 ± 0.00038.

The sequence PTIKPSPRFPLS had a protein stability index of 0.71 ± 0.021. The sequence PTKLFDTRPRGA displayed a protein stability index of 0.679 ± 0.05. For the sequence PTLLRRPLPNLG, the protein stability index came out at 0.73 ± 0.02. To PTLPPPPRPPAP belongs 0.657 ± 0.016; to PTLPTPAARPGR, 0.696 ± 0.016. In the case of PTLSPPSPPPPA it was 0.665 ± 0.035; in that of PTPGRSPKRLPE, 0.752 ± 0.026; in that of PTPLPHTRATPT, 0.778 ± 0.015. To PTPNPGHTRACL belongs 0.763 ± 0.23.

Consider PTPPCPLVPPRP, for which the protein stability index was found to be 0.72 ± 0.074. In the case of PTPPTPTISPTP it was 0.651 ± 0.0052; in that of PTQFSSAADLSA, 0.637 ± 0.062; in that of PTRERPSDQPYP, 0.701 ± 0.04. As to PTRGLTARPFLW, the protein stability index was 0.62 ± 0.042. In the case of PTRQKRPPYRIK it was 0.711 ± 0.031. PTRRPDLFYYSS displayed a protein stability index of 0.74 ± 0.017.

Sequence PTRSPPPAAIAS gave a protein stability index of 0.697 ± 0.14. In turn, PTSLLPLRLLNS returned a protein stability index of 0.61185 ± 0.00055. PTSLPPLSRPPP came in with a protein stability index of 0.723 ± 0.029. In the case of PTSPLVFFFVPL it was 0.624 ± 0.037; in that of PTSQRPFFLISP, 0.704 ± 0.015; in that of PTTTPHPHIATP, 0.711 ± 0.14. In the case of PTVFMNIQKQNI it was 0.678 ± 0.042.
